Assay results as given in US20240158477A1 (BIODURO JIANGSU, published 2024).

Columns and labels:
Assay in all cases: cell-based or functional assay
[1] = molecular target: SARS-CoV-2 S protein of variant B1.1.7
[2] = molecular target: SARS-CoV-2 S protein of variant B.1.351
[3] = molecular target: SARS-CoV-2 S protein of variant P.1
[4] = molecular target: SARS-CoV-2 S protein of variant B.1.525

B1: Fc tagged nanobody VHH60 (Fc fusion)
chain: EVQLVESGGGLVQPGGSLRLSCAASGRTFRVNLMGWFRQAPGKGRELVASINGFDDITYYPDSVEGRFTISRDNAKRMVYLQMNSLRAEDTAVYYCAAYDSDYDGRLFNYWGQGTQVTVSSGSGGGGSGGGGS
IC50, pseudoviral entry assay (CaCO2 cells) [1]: 31.8 nM
IC50, pseudoviral entry assay (CaCO2 cells) [2]: 18.3 nM
IC50, pseudoviral entry assay (CaCO2 cells) [3]: 16.3 nM
IC50, pseudoviral entry assay (CaCO2 cells) [4]: 15 nM
